Laboratory results as given in IntAct's records for PubMed 19040637.

B1: Probable glutaredoxin slr1562 (Synechocystis sp. (strain PCC 6803 / Kazusa)), P74593 (parent)
chain: MANLFNWLPLLSGRQADGIKAKVEIYTWQTCPFCIRAKLLLWWKGVKFIEYKIDGDDQARQAMAARAEGRRTVPQIFVNDQGIGGCDQLYGLDSRGQLDPLLATPPNPA
partner: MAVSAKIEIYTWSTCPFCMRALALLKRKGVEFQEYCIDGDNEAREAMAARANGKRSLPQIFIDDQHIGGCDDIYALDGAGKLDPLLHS
B2: Probable glutaredoxin ssr2061 (Synechocystis sp. (strain PCC 6803 / Kazusa)), P73492 (parent)
chain: B1 partner
partner: B1 chain

Variants of: B1
Details: with glrx2_syny3 glrx2, P73492

Variant | effect of a mutation on the interaction
MANLFNWLPLLSGRQADGIKAKVEIYTWQTSPFCIRAKLLLWWKGVKFIEYKIDGDDQARQAMAARAEGRRTVPQIFVNDQGIGGCDQLYGLDSRGQLDPLLATPPNPA [C31S] | decreasing interaction strength
MANLFNWLPLLSGRQADGIKAKVEIYTWQTCPFSIRAKLLLWWKGVKFIEYKIDGDDQARQAMAARAEGRRTVPQIFVNDQGIGGCDQLYGLDSRGQLDPLLATPPNPA [C34S] | disrupting interaction strength
MANLFNWLPLLSGRQADGIKAKVEIYTWQTCPFCIRAKLLLWWKGVKFIEYKIDGDDQARQAMAARAEGRRTVPQIFVNDQGIGGSDQLYGLDSRGQLDPLLATPPNPA [C86S] | disrupting interaction strength

Variants of: B2
Details: with glrx1_syny3 glrx1, P74593

Variant | effect of a mutation on the interaction
MAVSAKIEIYTWSTCPFSMRALALLKRKGVEFQEYCIDGDNEAREAMAARANGKRSLPQIFIDDQHIGGCDDIYALDGAGKLDPLLHS [C18S] | decreasing interaction strength
MAVSAKIEIYTWSTCPFCMRAKALLKRKGVEFQEYCIDGDNEAREAMAARANGKRSLPQIFIDDQHIGGCDDIYALDGAGKLDPLLHS [L22K] | decreasing interaction strength
MAVSAKIEIYTWSTCPFCMRALALLKRKGVEFQEYSIDGDNEAREAMAARANGKRSLPQIFIDDQHIGGCDDIYALDGAGKLDPLLHS [C36S] | decreasing interaction strength
